In the supplement of paper PMC10126150:
± gives the standard deviation of the averaged measurements.

System: ATP
Assay: switch fluorescence ratio, 500 uM ATP over buffer (Cy3 cluster intensity, sum of 5 cycles each) (fold (ratio)); higher = stronger signal-on switching upon ATP binding; sequences stand for … in TCGTCGGCAGCGTCAGATGTGTATAAGAGACAGTTTTTTTTTTTTTTTTTTTTTTTTT…TC
Settings: aptamer strand: ATP DNA aptamer (quencher-CACCTGGGGGAGTATTGCGGAGGAAGG + anchor), 100 nM annealed; ATP concentration: 500 uM
How it was run: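 Switching-strand clusters labelled with Cy3 on a modified Illumina MiSeq flow-cell were annealed to 100 nM quencher-labelled ATP aptamer, imaged in selection buffer, and re-imaged after 15 min with 500 uM ATP at 22 °C. This was done over five cycles with NaOH stripping and re-annealing in between. The fluorescence ratio is summed target-cycle over summed buffer-cycle Cy3 intensity per cluster, averaged per switch-domain sequence, excluding clusters outside 100-1000 RFU.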
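Further: ATP exposure 15 min at 22 °C before imaging.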

Sequence	switch fluorescence ratio
TTTGGATGCG	1.01 ± 0.077
TTTGGATTGG	0.967 ± 0.023
TTTGGATTTA	1.03 ± 0.057
TTTGGATTTC	1 ± 0.013
TTTGGCCTAG	1.02 ± 0.041
TTTGGCGGAG	0.992 ± 0.03
TTTGGCTAAA	1 ± 0.044
TTTGGCTGTT	0.998 ± 0.029
TTTGGCTTAA	0.9962 ± 0.006
TTTGGCTTTG	1.02 ± 0.05
TTTGGGATCG	0.98 ± 0.045
TTTGGGATCT	0.9881 ± 0.0098
TTTGGGATTG	1.07 ± 0.015
TTTGGGCGAG	0.976 ± 0.045
TTTGGGCTTC	1.0067 ± 0.00097
TTTGGGGAAG	1.01 ± 0.025
TTTGGGGAGG	1.02 ± 0.058
TTTGGGGCAT	1.032 ± 0.0027
TTTGGGGGAT	1.02 ± 0.1
TTTGGGGGGA	1.05 ± 0.21
TTTGGGGGGT	0.985 ± 0.02
TTTGGGGGTA	1.06 ± 0.068
TTTGGGGGTC	1.1 ± 0.24
TTTGGGGTCC	1.07 ± 0.1
TTTGGGGTCG	0.992 ± 0.034
TTTGGGGTTT	1.07 ± 0.24

Sequence	switch fluorescence ratio
TTTGGGTATT	0.9684 ± 0.0013
TTTGGGTCTC	0.998 ± 0.019
TTTGGGTGGA	1.02 ± 0.05
TTTGGGTTAC	1.04 ± 0.044
TTTGGGTTCA	0.972 ± 0.026
TTTGGGTTCC	1.44 ± 0.35
TTTGGTCATA	0.983 ± 0.024
TTTGGTCGC	0.9851 ± 0.0012
TTTGGTGACG	1.09 ± 0.029
TTTGGTGTCT	0.96 ± 0.025
TTTGGTTAAT	0.959 ± 0.027
TTTGGTTAGT	0.991 ± 0.023
TTTGGTTGAA	1.03 ± 0.088
TTTGGTTGAC	1.02 ± 0.053
TTTGGTTTGG	1.01 ± 0.036
TTTGTAAAAT	0.99 ± 0.021
TTTGTACAAC	1.01 ± 0.05
TTTGTACCGT	1.06 ± 0.1
TTTGTACTTC	1.02 ± 0.049
TTTGTATATT	1.01 ± 0.053
TTTGTATGGA	0.973 ± 0.011
TTTGTATTGG	0.998 ± 0.035
TTTGTCAGAC	1.03 ± 0.054
TTTGTCATTC	1 ± 0.0017
TTTGTCATTT	0.98 ± 0.016
TTTGTCCTTT	1.029 ± 0.0084

Sequence	switch fluorescence ratio
TTTGTCGCCG	1.01 ± 0.029
TTTGTCGTAA	0.999 ± 0.0014
TTTGTCTAGG	0.994 ± 0.019
TTTGTGACAG	1.02 ± 0.018
TTTGTGAGGA	0.996 ± 0.034
TTTGTGATTA	0.9954 ± 0.0093
TTTGTGGATG	0.985 ± 0.03
TTTGTGGCTA	1.03 ± 0.031
TTTGTGGGGG	1.01 ± 0.041
TTTGTGGTCT	0.991 ± 0.032
TTTGTGTTG	0.977 ± 0.024
TTTGTGTTGT	1.015 ± 0.0099
TTTGTTAAGC	0.973 ± 0.061
TTTGTTAGA	0.988 ± 0.012
TTTGTTAGCA	0.98708 ± 0.0008
TTTGTTAGGC	0.991 ± 0.029
TTTGTTAGGG	0.994 ± 0.022
TTTGTTCACT	0.989 ± 0.041
TTTGTTCATT	0.953 ± 0.019
TTTGTTCGGT	1.01 ± 0.013
TTTGTTCTT	1 ± 0.014
TTTGTTGCA	1.02 ± 0.011
TTTGTTGGCA	0.986 ± 0.024
TTTGTTTATC	1.02 ± 0.057
TTTGTTTCGA	1.05 ± 0.11
TTTGTTTGG	1 ± 0.017

Sequence	switch fluorescence ratio
TTTGTTTGGA	1.01 ± 0.046
TTTGTTTTAC	1.18 ± 0.21
TTTGTTTTTA	1.02 ± 0.041
TTTGTTTTTG	1 ± 0.026
TTTTAAAAGT	1 ± 0.03
TTTTAAAGGT	1.01 ± 0.024
TTTTAAATGC	1.07 ± 0.13
TTTTAAATGG	1.06 ± 0.052
TTTTAACCGA	1.08 ± 0.034
TTTTAACTAA	1.005 ± 0.0046
TTTTAAGAGG	1.01 ± 0.046
TTTTAAGGCA	1.03 ± 0.031
TTTTAAGGTA	0.996 ± 0.026
TTTTAAGGTC	1.019 ± 0.0034
TTTTAAGTCT	1.02 ± 0.0036
TTTTAAGTGG	0.991 ± 0.023
TTTTAAGTGT	1 ± 0.045
TTTTAATCCA	1.01 ± 0.033
TTTTAATGCA	0.977 ± 0.018
TTTTAATTTC	0.955 ± 0.14
TTTTACCCGT	1.01 ± 0.013
TTTTACCGTT	1.02 ± 0.015
TTTTACGATG	1 ± 0.012
TTTTACGTGG	0.9938 ± 0.0019
TTTTACGTTA	1.23 ± 0.11
TTTTACGTTT	1.04 ± 0.12

Sequence	switch fluorescence ratio
TTTTACTTCT	1.04 ± 0.062
TTTTAGAAAT	1.98 ± 1.3
TTTTAGAAGG	0.9797 ± 0.0062
TTTTAGAGTA	1.003 ± 0.009
TTTTAGATAG	1.06 ± 0.11
TTTTAGATGG	1.2 ± 0.2
TTTTAGCTGG	1 ± 0.015
TTTTAGGGTA	1.03 ± 0.017
TTTTAGGTAG	0.99 ± 0.0029
TTTTAGGTGT	1.28 ± 0.26
TTTTAGTACT	0.99 ± 0.036
TTTTAGTAGT	1.008 ± 0.01
TTTTAGTTCC	1.05 ± 0.018
TTTTAGTTCT	1.25 ± 0.42
TTTTAGTTGG	0.954 ± 0.038
TTTTAGTTTT	1 ± 0.031
TTTTATAATG	1.038 ± 0.0011
TTTTATAT	0.98 ± 0.03
TTTTATATAC	1.14 ± 0.076
TTTTATATGT	1.02 ± 0.028
TTTTATCAAT	1.003 ± 0.0076
TTTTATCTGT	1.01 ± 0.091
TTTTATGAAA	0.997 ± 0.012
TTTTATGAAG	1.04 ± 0.02
TTTTATGCGA	1.01 ± 0.02
TTTTATGGGC	1.01 ± 0.025

Sequence	switch fluorescence ratio
TTTTATGTCA	1.03 ± 0.051
TTTTATTTTT	0.997 ± 0.028
TTTTCAACAC	1.04 ± 0.033
TTTTCAAGTA	0.9789 ± 0.0094
TTTTCAAGTC	1.05 ± 0.15
TTTTCACTGG	1.01 ± 0.017
TTTTCAGTAG	0.9996 ± 0.0039
TTTTCATCGC	1.18 ± 0.18
TTTTCATGAT	0.991 ± 0.022
TTTTCATGGT	1.01 ± 0.035
TTTTCATGTG	0.995 ± 0.027
TTTTCATTAC	1.26 ± 0.069
TTTTCCAAGG	1.06 ± 0.031
TTTTCCAATG	1.02 ± 0.017
TTTTCCACGG	1.21 ± 0.16
TTTTCCATTT	0.99 ± 0.023
TTTTCCCATT	1.02 ± 0.075
TTTTCCCGAA	0.967 ± 0.026
TTTTCCCGGG	1.13 ± 0.15
TTTTCCTGCT	1.07 ± 0.082
TTTTCGACTA	0.97 ± 0.043
TTTTCGATTT	1.42 ± 1
TTTTCGCTAT	2.29 ± 1.6
